The labels stand for the following.
B1: Cullin-9, residues 2234 to 2275; numbered along this chain, Q8IWT3 (parent)
chain: KRCPSCQAPIEKNEGCLHMTCAKCNHGFCWRCLKSWKPNHKD

± gives the uncertainty stated by the source.

In the data set the parent is B1. Description: abundance fitness (aPCA) (normalised: wild type 0, dead -1); higher = more abundant; growth selection in yeast, the domain comes from the species named. The conditions noted are these: Homo sapiens.
As for L33Y, the abundance fitness is -0.512 ± 0.21.

On to L33N, for which the abundance fitness is -0.432 ± 0.11. To L33F belongs -0.451 ± 0.15. To L33S belongs -0.623 ± 0.11.

Consider L33D, for which the abundance fitness was -0.235 ± 0.13. Next, Q7D: 0.538 ± 0.24. For Q7E, the abundance fitness was determined as 0.089 ± 0.11. With Q7A, the abundance fitness is -0.064 ± 0.15. On to S5H, for which the abundance fitness is -0.336 ± 0.32. Regarding S5A, the abundance fitness came to 0.462 ± 0.074. To S5I belongs -0.142 ± 0.23. Next, C3T: -0.435 ± 0.15; C3E: -0.474 ± 0.17; C3H: -0.249 ± 0.15. On to C3M, for which the abundance fitness is -0.144 ± 0.11. C3I: the abundance fitness was determined as 0.698 ± 0.13. As to C3Y, the abundance fitness was -0.342 ± 0.16.

Consider C3V, for which the abundance fitness is -0.348 ± 0.092. Next, C32G: -0.668 ± 0.081; C32F: -0.744 ± 0.17. Turning to C32K, the abundance fitness was -0.677 ± 0.18. As to C29N, the abundance fitness is -0.761 ± 0.39. On to C29F, for which the abundance fitness is -1.53 ± 0.46. With C29A, the abundance fitness is -0.76 ± 0.11. With H18V, the abundance fitness was -0.393 ± 0.099. On to H18R, for which the abundance fitness is -0.016 ± 0.073.

Turning to H18Y, the abundance fitness was -0.503 ± 0.16. As for W30S, the abundance fitness is -0.101 ± 0.11. To W30L belongs -0.156 ± 0.083. To W30I belongs -0.258 ± 0.12; to W30M, -0.223 ± 0.12. As for W30H, the abundance fitness is -0.069 ± 0.21. In the case of K34M, the abundance fitness is -0.374 ± 0.13. Regarding K34G, the abundance fitness is -0.194 ± 0.073.

As to K34N, the abundance fitness was -0.579 ± 0.23. For K34P, the abundance fitness was -0.363 ± 0.12. In the case of C24L, the abundance fitness is -0.454 ± 0.093. To C24K belongs -0.379 ± 0.13. On to P9Y, for which the abundance fitness is -0.265 ± 0.18. Next, P9T: -0.107 ± 0.12; E14W: -0.362 ± 0.14.

For E14F, the abundance fitness was -0.492 ± 0.2. In the case of E14Q, the abundance fitness is -0.132 ± 0.13.

Regarding E14D, the abundance fitness is -0.084 ± 0.16.

In the case of E14M, the abundance fitness is 0.121 ± 0.23. To K37S belongs 0.234 ± 0.099. To K37L belongs -0.143 ± 0.096; to K37M, -0.261 ± 0.12; to W36K, 0.13 ± 0.13. Next, W36N: -0.355 ± 0.34; G27M: -0.264 ± 0.18; G27W: -0.005 ± 0.11. As for G27A, the abundance fitness is 0.194 ± 0.077.

As to H40S, the abundance fitness was 0.066 ± 0.11. Next, H40A: 0.05 ± 0.077; H40C: -0.24 ± 0.14; R2G: 0.204 ± 0.079. On to R2W, for which the abundance fitness was -0.279 ± 0.11. In the case of R2Y, the abundance fitness amounted to 0.242 ± 0.13.

Consider R2I, for which the abundance fitness was 1.09 ± 0.27. Next, R2V: -0.2 ± 0.094; R2M: 0.559 ± 0.11. Next, R2N: 0.571 ± 0.14. To R2K belongs 0.123 ± 0.1; to P38V, -0.212 ± 0.079. As to P38K, the abundance fitness was -0.379 ± 0.32. To P38T belongs -0.204 ± 0.19. Turning to P38E, the abundance fitness was 0.184 ± 0.11. To P38S belongs -0.26 ± 0.1. For S35K, the abundance fitness was -0.155 ± 0.12. In the case of S35W, the abundance fitness is -0.23 ± 0.12. Next, S35F: 0.187 ± 0.17. Next, S35A: 0.049 ± 0.083. To A22D belongs 0.229 ± 0.19. A22E: the abundance fitness turned out to be 0.029 ± 0.11. As for A22L, the abundance fitness is -0.282 ± 0.13. For the variant G15M, the abundance fitness was -0.576 ± 0.17.

Consider G15Q, for which the abundance fitness was -0.777 ± 0.21.

In the case of G15E, the abundance fitness is 0.045 ± 0.097. Next, G15K: -0.294 ± 0.15; G15C: -0.113 ± 0.33.

With G15H, the abundance fitness is -0.492 ± 0.17. Turning to G15T, the abundance fitness is -0.698 ± 0.17. To M19Y belongs -0.803 ± 0.46; to M19V, 0.264 ± 0.076. Regarding M19P, the abundance fitness was determined as 0.012 ± 0.1. Next, M19N: -0.161 ± 0.18. As to M19I, the abundance fitness was -0.008 ± 0.19. In the case of N25A, the abundance fitness was -0.127 ± 0.091. To N25K belongs -0.092 ± 0.14; to N25M, -0.06 ± 0.14. Consider D42K, for which the abundance fitness was -0.487 ± 0.37. Turning to D42P, the abundance fitness is -0.158 ± 0.19.

With D42C, the abundance fitness was determined as 0.214 ± 0.12. D42V: the abundance fitness was -0.359 ± 0.16. Next, D42F: -0.729 ± 0.24. Next, D42M: -0.77 ± 0.37; C16K: 0.324 ± 0.099. Turning to C16F, the abundance fitness is -0.149 ± 0.15. C16L: the abundance fitness is -0.115 ± 0.084. C16W: the abundance fitness is -0.121 ± 0.09. C21W: the abundance fitness is -0.823 ± 0.12.

Regarding C21K, the abundance fitness was -0.489 ± 0.12.

As to C21Y, the abundance fitness was -0.465 ± 0.2. For the variant R31N, the abundance fitness amounted to 0.17 ± 0.17. Next, R31S: -0.065 ± 0.09. Next, E11G: -0.34 ± 0.079.

As to E11P, the abundance fitness is -0.309 ± 0.17. With I10A, the abundance fitness is -0.193 ± 0.11. I10T: the abundance fitness is -0.083 ± 0.1.

Consider I10W, for which the abundance fitness is -0.555 ± 0.1. Next, K12A: 0.126 ± 0.081.

With K12S, the abundance fitness is -0.112 ± 0.085.

Regarding K12L, the abundance fitness is -0.201 ± 0.081. For the variant K12M, the abundance fitness is -0.22 ± 0.12.

On to K12G, for which the abundance fitness came to 0.268 ± 0.071. Next, K12P: 0.057 ± 0.081; K12I: -0.492 ± 0.23. Next, K12D: -0.248 ± 0.12. To N13C belongs -0.101 ± 0.15.

Turning to N13S, the abundance fitness is -0.096 ± 0.1. In the case of N13E, the abundance fitness was -0.002 ± 0.1. To N13Q belongs -0.044 ± 0.097. Next, N13W: 0 ± 0.1; L17M: -0.071 ± 0.13; L17P: -0.047 ± 0.12. L17T: the abundance fitness was -0.236 ± 0.12. To L17R belongs -0.614 ± 0.085.

Turning to L17I, the abundance fitness is -0.267 ± 0.2. P4R: the abundance fitness was -0.41 ± 0.089. As to P4I, the abundance fitness was 0.013 ± 0.14. Next, P4N: -1.15 ± 0.28; P4G: 0.056 ± 0.07. To C6S belongs -0.511 ± 0.12; to C6T, -0.347 ± 0.098.

Consider C6A, for which the abundance fitness was -0.029 ± 0.096. In the case of C6D, the abundance fitness was -0.091 ± 0.13. Next, C6Y: -0.518 ± 0.15; C6V: -0.383 ± 0.087; C6E: -0.304 ± 0.11. As to K23S, the abundance fitness was -0.174 ± 0.1. To K23V belongs -0.293 ± 0.091; to K23I, -0.437 ± 0.14. Take K23G: the abundance fitness is -0.262 ± 0.08.

Take K23A: the abundance fitness was -0.102 ± 0.085. To K23L belongs -0.325 ± 0.092; to K23E, -0.209 ± 0.097. H26P: the abundance fitness was -0.154 ± 0.098. Turning to H26A, the abundance fitness is -0.022 ± 0.089. Next, H26T: -0.226 ± 0.16; A8G: 0.023 ± 0.074. A8V: the abundance fitness was -0.231 ± 0.083.

As to A8N, the abundance fitness turned out to be 0.305 ± 0.22. To F28P belongs 0.048 ± 0.12. Next, T20F: -0.462 ± 0.24. Next, T20W: -0.172 ± 0.093; T20I: 0.196 ± 0.16; T20R: -0.143 ± 0.077.

For T20D, the abundance fitness is -0.166 ± 0.14. To N39G belongs 0.203 ± 0.073. In the case of N39T, the abundance fitness amounted to 0.16 ± 0.096. Turning to N39D, the abundance fitness worked out at 0.244 ± 0.11. To N39S belongs 0.001 ± 0.12.

As for K1R, the abundance fitness was -0.948 ± 0.12. To K1C belongs -1.12 ± 0.26; to K1V, -0.46 ± 0.11; to K1W, -1.42 ± 0.38.

These data come from the Human Domainome abundance scans (Beltran et al. 2025).
